# Test results as given in patent publication US20210172932A1 (published 2021).
# Target: T1, human FcRn (immobilized on nickel-nitrilotriacetic acid-coated biosensors) (human, UniProt P55899 24-297; P61769 21-119)
# T1 construct: also called neonatal Fc receptor
# Test: BLI (Octet RED), FcRn on Ni-NTA biosensor, pH 6.0
row,Binder,Kd [nM]
1,Pembrolizumab (antibody) chain 1: not shown chain 2: EIVLTQSPATLSLSPGERATLSCRASKGVSTSGYSYLHWYQQKPGQAPRLLIYLASYLESGVPARFSGSGSGTDFTLTISSLEPEDFAVYYCQHSRDLPLTFGGGTKVEIKRTVAAPSVFIFPPSDEQLKSGTASVVCLLNNFYPREAKVQWKVDNALQSGNSQESVTEQDSKDSTYSLSSTLTLSKADYEKHKVYACEVTHQGLSSPVTKSFNRGEC,290
2,Tocilizumab (antibody) chain 1: not shown chain 2: not shown,460
3,Vedolizumab (antibody) chain 1: not shown chain 2: DVVMTQSPLSLPVTPGEPASISCRSSQSLAKSYGNTYLSWYLQKPGQSPQLLIYGISNRFSGVPDRFSGSGSGTDFTLKISRVEAEDVGVYYCLQGTHQPYTFGQGTKVEIKRTVAAPSVFIFPPSDEQLKSGTASVVCLLNNFYPREAKVQWKVDNALQSGNSQESVTEQDSKDSTYSLSSTLTLSKADYEKHKVYACEVTHQGLSSPVTKSFNRGEC,610
4,Emicizumab (bispecific antibody) chain 1: DIQMTQSPSSLSASVGDRVTITCKASRNIERQLAWYQQKPGQAPELLIYQASRKESGVPDRFSGSRYGTDFTLTISSLQPEDIATYYCQQYSDPPLTFGGGTKVEIKRTAAAPSVFIFPPSDEQLKSGTASVVCLLNNFYPREAKVQWKVDNALQSGNSQESVTEQDSKDSTYSLSSTLTLSKADYEKHKVYACEVTHQGLSSPVTKSFNRGEC chain 2: QVQLVESGGGLVQPGGSLRLSCAASGFTFSYYDIQWVRQAPGKGLEWVSSISPSGQSTYYRREVKGRFTISRDNSKNTLYLQMNSLRAEDTAVYYCARRTGREYGGGWYFDYWGQGTLVTVSSASTKGPSVFPLAPCSRSTSESTAALGCLVKDYFPEPVTVSWNSGALTSGVHTFPAVLQSSGLYSLSSVVTVPSSSLGTQTYTCNVDHKPSNTKVDKRVESKYGPPCPPCPAPEFLGGPSVFLFPPKPKDTLMISRTPEVTCVVVDVSQEDPEVQFNWYVDGVEVHNAKTKPREEQYNSTYRVVSVLTVLHQDWLNGKEYKCKVSNKGLPSSIEKTISKAKGQPREPQVYTLPPSQKEMTKNQVSLTCLVKGFYPSDIAVEWESNGQPENNYKTTPPVLDSDGSFFLYSKLTVDKSRWQEGNVFSCSVMHEALHNRYTQKSLSLSPEQKLISEEDLNAVGQDTQEVIVVPHSLPFKVVVISAILALVVLTIISLIILIMLWQKKPR chain 3: QVQLVQSGSELKKPGASVKVSCKASGYTFTDNNMDWVRQAPGQGLEWMGDINTRSGGSIYNEEFQDRVIMTVDKSTDTAYMELSSLRSEDTATYHCARRKSYGYYLDEWGEGTLVTVSSASTKGPSVFPLAPCSRSTSESTAALGCLVKDYFPEPVTVSWNSGALTSGVHTFPAVLQSSGLYSLSSVVTVPSSSLGTQTYTCNVDHKPSNTKVDKRVESKYGPPCPPCPAPEFLGGPSVFLFPPKPKDTLMISRTPEVTCVVVDVSQEDPEVQFNWYVDGVEVHNAKTKPREEQYNSTYRVVSVLTVLHQDWLNGKEYKCKVSNKGLPSSIEKTISKAKGQPREPQVYTLPPSQEEMTKNQVSLTCLVKGFYPSDIAVEWESNGQPENNYKTTPPVLDSDGSFFLYSKLTVDKSRWQEGNVFSCSVMHEALHNHYTQESLSLSPEQKLISEEDLNAVGQDTQEVIVVPHSLPFKVVVISAILALVVLTIISLIILIMLWQKKPR,1230
